Source: US20240117018A1

Assays:
Test in all cases: cell-based or functional assay
[1] = molecular target: HIV-1 Env pseudovirus 1394C9G1(Rev-) (HIV-1)
[2] = molecular target: HIV-1 Env pseudovirus 7030102001E5(Rev-) (HIV-1)
[3] = molecular target: HIV-1 Env pseudovirus BF1266.431a (HIV-1)
[4] = molecular target: HIV-1 Env pseudovirus CNE19 (HIV-1)
[5] = molecular target: HIV-1 Env pseudovirus CNE30 (HIV-1)
[6] = molecular target: HIV-1 Env pseudovirus CNE53 (HIV-1)
[7] = molecular target: HIV-1 Env pseudovirus Ce1086_B2 (HIV-1)
[8] = molecular target: HIV-1 Env pseudovirus Ce1172_H1 (HIV-1)
[9] = molecular target: HIV-1 Env pseudovirus Ce704809221_1B3 (HIV-1)
[10] = molecular target: HIV-1 Env pseudovirus Du422.1 (HIV-1)
[11] = molecular target: HIV-1 Env pseudovirus Q259.d2.17 (HIV-1)
[12] = molecular target: HIV-1 Env pseudovirus Q769.d22 (HIV-1)
[13] = molecular target: HIV-1 Env pseudovirus QH0692.42 (HIV-1)
[14] = molecular target: HIV-1 Env pseudovirus THRO4156.18 (HIV-1)
[15] = molecular target: HIV-1 Env pseudovirus WITO4160.33 (HIV-1)
[16] = molecular target: HIV-1 Env pseudovirus ZM214M.PL15 (HIV-1)
[17] = molecular target: HIV-1 Env pseudovirus ZM233M.PB6 (HIV-1)
[18] = molecular target: HIV-1 Env pseudovirus ZM53M.PB12 (HIV-1)
[19] = molecular target: MuLV envelope (negative control pseudovirus) (MuLV)
[20] = molecular target: HIV-1 Env pseudovirus 6041.v3.c23 (HIV-1)
[21] = molecular target: HIV-1 Env pseudovirus CNE5 (HIV-1)
[22] = molecular target: HIV-1 Env pseudovirus T251-18 (HIV-1)
[23] = molecular target: Env of HIV-1 pseudovirus 1006_11_C3_1601 (HIV-1)
[24] = molecular target: Env of HIV-1 pseudovirus 9004SS_A3_4 (HIV-1)
[25] = molecular target: Env of HIV-1 pseudovirus Ce0393_C3 (HIV-1)
[26] = molecular target: Env of HIV-1 pseudovirus Ce2010_F5 (HIV-1)
[27] = molecular target: Env of HIV-1 pseudovirus Du156.12 (HIV-1)
[28] = molecular target: Env of HIV-1 pseudovirus Q23.17 (HIV-1)
[29] = molecular target: Env of HIV-1 pseudovirus REJO4541.67 (HIV-1)
[30] = molecular target: Env of HIV-1 pseudovirus RHPA4259.7 (HIV-1)
[31] = molecular target: Env of HIV-1 pseudovirus SC05_8C11_2344 (HIV-1)
[32] = molecular target: Env of HIV-1 pseudovirus TRO.11 (HIV-1)
[33] = molecular target: Env of HIV-1 pseudovirus WITO4160.33 (HIV-1)

N49P7.2 (antibody)
IC50 [1]: > 50 µg/mL
IC80 [1]: > 50 µg/mL
MPI [1]: 20
IC50 [2]: 0.313 µg/mL
IC80 [2]: 1.03 µg/mL
MPI [2]: 100
IC50 [3]: 0.029 µg/mL
IC80 [3]: 0.159 µg/mL
MPI [3]: 100
IC50 [4]: 0.033 µg/mL
IC80 [4]: 0.129 µg/mL
MPI [4]: 100
IC50 [5]: 0.362 µg/mL
IC80 [5]: 1.2 µg/mL
MPI [5]: 100
IC50 [6]: 0.1 µg/mL
IC80 [6]: 0.277 µg/mL
MPI [6]: 100
IC50 [7]: 0.166 µg/mL
IC80 [7]: 1 µg/mL
MPI [7]: 100
IC50 [8]: > 50 µg/mL
IC80 [8]: > 50 µg/mL
MPI [8]: 6
IC50 [9]: 0.874 µg/mL
IC80 [9]: 3.88 µg/mL
MPI [9]: 100
IC50 [10]: > 50 µg/mL
IC80 [10]: > 50 µg/mL
MPI [10]: 22
IC50 [11]: 38.5 µg/mL
IC80 [11]: > 50 µg/mL
MPI [11]: 54
IC50 [12]: 0.029 µg/mL
IC80 [12]: 0.14 µg/mL
MPI [12]: 100
IC50 [13]: 1.26 µg/mL
IC80 [13]: 4.42 µg/mL
MPI [13]: 100
IC50 [14]: 6.29 µg/mL
IC80 [14]: 33.3 µg/mL
MPI [14]: 94
IC50 [15]: 0.051 µg/mL
IC80 [15]: 0.215 µg/mL
MPI [15]: 100
IC50 [16]: 0.559 µg/mL
IC80 [16]: 4.53 µg/mL
MPI [16]: 100
IC50 [17]: 0.475 µg/mL
IC80 [17]: 2.14 µg/mL
MPI [17]: 99
IC50 [18]: 0.477 µg/mL
IC80 [18]: 1.73 µg/mL
MPI [18]: 100

N49P7 (antibody)
IC50 (neutralisation, TZM.bl cells) [19]: > 50 µg/mL
IC80 (neutralisation, TZM.bl cells) [19]: > 50 µg/mL
MPI [19]: 9

VRC01 (antibody)
IC50 (Titer in TZM.bl cells) [1]: 0.36 µg/mL
IC80 (Titer in TZM.bl cells) [1]: 1.28 µg/mL
IC50 (Titer in TZM.bl cells) [20]: 0.02 µg/mL
IC80 (Titer in TZM.bl cells) [20]: 0.08 µg/mL
IC50 (Titer in TZM.bl cells) [2]: 0.54 µg/mL
IC80 (Titer in TZM.bl cells) [2]: 2.08 µg/mL
IC50 (Titer in TZM.bl cells) [3]: 0.07 µg/mL
IC80 (Titer in TZM.bl cells) [3]: 0.23 µg/mL
IC50 (Titer in TZM.bl cells) [21]: 0.37 µg/mL
IC80 (Titer in TZM.bl cells) [21]: 1.1 µg/mL
IC50 (Titer in TZM.bl cells) [7]: 0.42 µg/mL
IC80 (Titer in TZM.bl cells) [7]: 1.44 µg/mL
IC50 (Titer in TZM.bl cells) [8]: > 10 µg/mL
IC80 (Titer in TZM.bl cells) [8]: > 10 µg/mL
IC50 (Titer in TZM.bl cells) [9]: 0.55 µg/mL
IC80 (Titer in TZM.bl cells) [9]: 2.05 µg/mL
IC50 (Titer in TZM.bl cells) [10]: > 50 µg/mL
IC80 (Titer in TZM.bl cells) [10]: > 50 µg/mL
IC50 (Titer in TZM.bl cells) [11]: 0.17 µg/mL
IC80 (Titer in TZM.bl cells) [11]: 0.54 µg/mL
IC50 (Titer in TZM.bl cells) [12]: 0.08 µg/mL
IC80 (Titer in TZM.bl cells) [12]: 0.29 µg/mL
IC50 (Titer in TZM.bl cells) [13]: 1.5 µg/mL
IC80 (Titer in TZM.bl cells) [13]: 4.8 µg/mL
IC80 (Titer in TZM.bl cells) [22]: 11.2 µg/mL
IC80 (Titer in TZM.bl cells) [14]: 23 µg/mL
IC50 (Titer in TZM.bl cells) [15]: 0.15 µg/mL
IC80 (Titer in TZM.bl cells) [15]: 0.41 µg/mL
IC50 (Titer in TZM.bl cells) [16]: 0.44 µg/mL
IC80 (Titer in TZM.bl cells) [16]: 2.6 µg/mL
IC50 (Titer in TZM.bl cells) [17]: 2 µg/mL
IC80 (Titer in TZM.bl cells) [17]: 9.3 µg/mL
IC50 (Titer in TZM.bl cells) [18]: 1.3 µg/mL
IC80 (Titer in TZM.bl cells) [18]: 4 µg/mL

PG9 (antibody)
IC50 [23]: 0.366 µg/mL
IC80 [23]: 1.91 µg/mL
IC50 [24]: 0.088 µg/mL
IC80 [24]: 0.251 µg/mL
IC50 [25]: 0.02 µg/mL
IC80 [25]: 0.055 µg/mL
IC50 [26]: > 50 µg/mL
IC80 [26]: > 50 µg/mL
IC50 [27]: 0.026 µg/mL
IC80 [27]: 0.19 µg/mL
IC50 [28]: 0.027 µg/mL
IC80 [28]: 0.082 µg/mL
IC50 [29]: 0.012 µg/mL
IC80 [29]: 0.163 µg/mL
IC50 [30]: 22.6 µg/mL
IC80 [30]: > 50 µg/mL
IC50 [31]: 0.892 µg/mL
IC80 [31]: 4.28 µg/mL
IC50 [32]: 43.2 µg/mL
IC80 [32]: > 50 µg/mL
IC50 [33]: 0.01 µg/mL
IC80 [33]: 0.037 µg/mL

N49P18.1 (antibody)
IC50 [1]: > 50 µg/mL
IC80 [1]: > 50 µg/mL
MPI [1]: 17
IC50 [2]: 6.35 µg/mL
IC80 [2]: 17.7 µg/mL
MPI [2]: 98
IC50 [3]: 3.48 µg/mL
IC80 [3]: 20.8 µg/mL
MPI [3]: 93
IC50 [4]: 2.34 µg/mL
IC80 [4]: 9.64 µg/mL
MPI [4]: 99
IC50 [5]: 13.1 µg/mL
IC80 [5]: 32.2 µg/mL
MPI [5]: 93
IC50 [6]: 4.08 µg/mL
IC80 [6]: 21.8 µg/mL
MPI [6]: 97
IC50 [7]: 8.98 µg/mL
IC80 [7]: 48 µg/mL
MPI [7]: 92
IC50 [8]: 46.4 µg/mL
IC80 [8]: > 50 µg/mL
MPI [8]: 52
IC50 [9]: 41.6 µg/mL
IC80 [9]: > 50 µg/mL
MPI [9]: 59
IC50 [10]: 21.5 µg/mL
IC80 [10]: > 50 µg/mL
MPI [10]: 75
IC50 [11]: > 50 µg/mL
IC80 [11]: > 50 µg/mL
MPI [11]: 37
IC50 [12]: 4.92 µg/mL
IC80 [12]: 18.3 µg/mL
MPI [12]: 97
IC50 [13]: > 50 µg/mL
IC80 [13]: > 50 µg/mL
MPI [13]: 43
IC50 [14]: > 50 µg/mL
IC80 [14]: > 50 µg/mL
MPI [14]: 19
IC50 [15]: 11 µg/mL
IC80 [15]: 37.6 µg/mL
MPI [15]: 87
IC50 [16]: > 50 µg/mL
IC80 [16]: > 50 µg/mL
MPI [16]: 20
IC50 [17]: 38.4 µg/mL
IC80 [17]: > 50 µg/mL
MPI [17]: 57
IC50 [18]: 1.3 µg/mL
IC80 [18]: 4.51 µg/mL
MPI [18]: 99
